Legend:
[1] = biological target: T1, SARS-CoV-2 spike protein receptor binding domain (RBD) (SARS-CoV-2, UniProt P0DTC2); assay: cell-based or functional assay
[2] = biological target: T1, SARS-CoV-2 spike protein receptor …; assay: SPR; settings: both partners purified

Binder	IC50 of neutralisation, pseudotyped SARS-CoV-2 (luciferase reporter); RBD-hACE2 is the pair interfered with [1] [nM]	Kd [2] [nM]
Nb20 (VHH) VHH: QVQLVESGGGLVQAGGSLRLSCAVSGAGAHRVGWFRRAPGKEREFVAAIGASGGMTNYLDSVKGRFTISRDNAKNTIYLQMNSLKPQDTAVYYCAARDIETAEYIYWGQGTQVTVSS	0.102	0.0104
Nb21 (VHH) VHH: QVQLVESGGGLVQAGGSLRLSCAVSGLGAHRVGWFRRAPGKEREFVAAIGANGGNTNYLDSVKGRFTISRDNAKNTIYLQMNSLKPQDTAVYYCAARDIETAEYTYWGQGTQVTVSS	0.045	

Source: publication PMC7857400 (Science (New York, N.y.), 2020)
